Laboratory results as given in the supplement of paper PMC9112550, “Optimization of the antimicrobial peptide Bac7 by deep mutational scanning” (BMC Biology, 2022).

Test system: Escherichia coli TOP10
Assay: shrunken log2 fold change of peptide-encoding DNA abundance (4.5 h post-induction vs induction); higher = less antimicrobial activity (less host growth inhibition)
Details: time post-induction: 4.5 h; library: site-saturation at positions 5, 18, 19, 20
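Note: peptides expressed intracellularly from a pBAD plasmid library in pooled LB shake-flask culture, induced with 0.3% L-arabinose, DNA abundance read by NGS, three biological replicates, DESeq2 with apeglm shrinkage.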

| Sequence | shrunken log2 fold change |
| --- | --- |
| RRIRWRPPRLPRPRPRPYQEPRP | -0.0609 |
| RRIRWRPPRLPRPRPRPVRCPRP | 0.418 |
| RRIRARPPRLPRPRPRPEKFPRP | -0.0388 |
| RRIRHRPPRLPRPRPRPDPRPRP | 0.0959 |
| RRIRSRPPRLPRPRPRPASDPRP | 0.407 |
| RRIRMRPPRLPRPRPRPSEYPRP | 0.0493 |
| RRIRQRPPRLPRPRPRPNGKPRP | -0.362 |
| RRIRFRPPRLPRPRPRPQSYPRP | -0.111 |
| RRIRDRPPRLPRPRPRPMEHPRP | 0.208 |
| RRIRNRPPRLPRPRPRPASFPRP | -0.00784 |
| RRIRWRPPRLPRPRPRPSAIPRP | -0.201 |
| RRIRFRPPRLPRPRPRPRGGPRP | 0.9 |
| RRIRDRPPRLPRPRPRPIEAPRP | 0.184 |
| RRIRFRPPRLPRPRPRPLFKPRP | -0.279 |
| RRIRKRPPRLPRPRPRPHYHPRP | -0.145 |
| RRIRIRPPRLPRPRPRPGMSPRP | -0.15 |
| RRIRARPPRLPRPRPRPYSPPRP | -0.409 |
| RRIRARPPRLPRPRPRPNPWPRP | 0.222 |
| RRIRTRPPRLPRPRPRPFEFPRP | -0.508 |
| RRIRSRPPRLPRPRPRPSPSPRP | 0.0408 |
| RRIRKRPPRLPRPRPRPHDSPRP | -0.0516 |
| RRIRGRPPRLPRPRPRPHEKPRP | 0.0144 |
| RRIRWRPPRLPRPRPRPGSCPRP | 0.389 |
| RRIRFRPPRLPRPRPRPNEPPRP | -0.00783 |
| RRIRMRPPRLPRPRPRPFPKPRP | 0.385 |

| Sequence | shrunken log2 fold change |
| --- | --- |
| RRIRIRPPRLPRPRPRPCHMPRP | -0.188 |
| RRIRCRPPRLPRPRPRPLEPPRP | 0.0773 |
| RRIRNRPPRLPRPRPRPTREPRP | 0.15 |
| RRIRLRPPRLPRPRPRPELMPRP | 0.0527 |
| RRIRGRPPRLPRPRPRPRCTPRP | 0.892 |
| RRIRDRPPRLPRPRPRPVYIPRP | -0.497 |
| RRIRERPPRLPRPRPRPGCLPRP | -0.017 |
| RRIRWRPPRLPRPRPRPTGKPRP | 0.294 |
| RRIRQRPPRLPRPRPRPKSEPRP | -0.0211 |
| RRIRSRPPRLPRPRPRPWITPRP | -0.305 |
| RRIRHRPPRLPRPRPRPNQYPRP | -0.663 |
| RRIRLRPPRLPRPRPRPEMEPRP | -0.0177 |
| RRIRIRPPRLPRPRPRPQILPRP | 0.0356 |
| RRIRDRPPRLPRPRPRPHYDPRP | 0.0428 |
| RRIRIRPPRLPRPRPRPYALPRP | -0.0961 |
| RRIRTRPPRLPRPRPRPLWQPRP | 0.0687 |
| RRIRMRPPRLPRPRPRPMRKPRP | 0.361 |
| RRIRWRPPRLPRPRPRPQNVPRP | -0.0645 |
| RRIRTRPPRLPRPRPRPLRHPRP | 0.252 |
| RRIRCRPPRLPRPRPRPMNYPRP | -0.226 |
| RRIRVRPPRLPRPRPRPDKTPRP | -0.0309 |
| RRIRERPPRLPRPRPRPNTGPRP | -0.385 |
| RRIRQRPPRLPRPRPRPRPAPRP | 0.185 |
| RRIRDRPPRLPRPRPRPCTTPRP | -0.00176 |
| RRIRTRPPRLPRPRPRPALAPRP | 0.425 |

| Sequence | shrunken log2 fold change |
| --- | --- |
| RRIRGRPPRLPRPRPRPPQNPRP | 1.01 |
| RRIRKRPPRLPRPRPRPCTQPRP | -0.0701 |
| RRIRNRPPRLPRPRPRPHNDPRP | -0.395 |
| RRIRPRPPRLPRPRPRPMDPPRP | 0.0118 |
| RRIRYRPPRLPRPRPRPKFQPRP | -0.0557 |
| RRIRLRPPRLPRPRPRPPTFPRP | 0.00353 |
| RRIRIRPPRLPRPRPRPCKGPRP | 0.00355 |
| RRIRERPPRLPRPRPRPYWAPRP | -0.888 |
| RRIRMRPPRLPRPRPRPRNIPRP | 0.0054 |
| RRIRNRPPRLPRPRPRPPHHPRP | -0.11 |
| RRIRVRPPRLPRPRPRPAGYPRP | -0.0144 |
| RRIRNRPPRLPRPRPRPNWRPRP | 0.216 |
| RRIRGRPPRLPRPRPRPTKRPRP | 0.533 |
| RRIRPRPPRLPRPRPRPMSAPRP | 0.0743 |
| RRIRMRPPRLPRPRPRPRDFPRP | 0.83 |
| RRIRARPPRLPRPRPRPYEEPRP | -0.441 |
| RRIRHRPPRLPRPRPRPYVTPRP | -0.182 |
| RRIRYRPPRLPRPRPRPTIFPRP | -0.412 |
| RRIRRRPPRLPRPRPRPPCHPRP | 0.761 |
| RRIRIRPPRLPRPRPRPSLCPRP | -0.242 |
| RRIRYRPPRLPRPRPRPNCCPRP | -0.518 |
| RRIRTRPPRLPRPRPRPEQHPRP | 0.0492 |
| RRIRIRPPRLPRPRPRPHPGPRP | -0.571 |
| RRIRERPPRLPRPRPRPYCGPRP | -0.109 |
| RRIRFRPPRLPRPRPRPSGTPRP | -0.0628 |

| Sequence | shrunken log2 fold change |
| --- | --- |
| RRIRVRPPRLPRPRPRPEIEPRP | 0.173 |
| RRIRCRPPRLPRPRPRPDNWPRP | 0.409 |
| RRIRQRPPRLPRPRPRPWWDPRP | 0.00367 |
| RRIRERPPRLPRPRPRPICLPRP | -0.0493 |
| RRIRLRPPRLPRPRPRPDIRPRP | -0.15 |
| RRIRRRPPRLPRPRPRPEDVPRP | -0.0417 |
| RRIRARPPRLPRPRPRPLRFPRP | 0.396 |
| RRIRIRPPRLPRPRPRPFMDPRP | -1.07 |
| RRIRWRPPRLPRPRPRPIRYPRP | -0.242 |
| RRIRQRPPRLPRPRPRPSMHPRP | -0.0647 |
| RRIRCRPPRLPRPRPRPCHYPRP | -0.403 |
| RRIRNRPPRLPRPRPRPSQFPRP | -0.16 |
| RRIRTRPPRLPRPRPRPRYYPRP | -0.112 |
| RRIRQRPPRLPRPRPRPGFYPRP | 0.116 |
| RRIRFRPPRLPRPRPRPDRPPRP | 0.033 |
| RRIRARPPRLPRPRPRPFCYPRP | 0.0576 |
| RRIRPRPPRLPRPRPRPFYWPRP | -0.107 |
| RRIRCRPPRLPRPRPRPSLAPRP | 0.133 |
| RRIRIRPPRLPRPRPRPVFQPRP | -0.19 |
| RRIRARPPRLPRPRPRPSTLPRP | 0.111 |
| RRIRMRPPRLPRPRPRPPEAPRP | 0.779 |
| RRIRVRPPRLPRPRPRPTNMPRP | -0.472 |
| RRIRNRPPRLPRPRPRPCLGPRP | -0.219 |
| RRIRFRPPRLPRPRPRPLFPPRP | -0.23 |
| RRIRLRPPRLPRPRPRPGHMPRP | -0.236 |

| Sequence | shrunken log2 fold change |
| --- | --- |
| RRIRARPPRLPRPRPRPSDAPRP | 0.396 |
| RRIRSRPPRLPRPRPRPPAIPRP | 0.413 |
| RRIRCRPPRLPRPRPRPNFYPRP | -0.228 |
| RRIRYRPPRLPRPRPRPNERPRP | -0.0497 |
| RRIRPRPPRLPRPRPRPEFRPRP | -0.00133 |
| RRIRDRPPRLPRPRPRPTCLPRP | 0.653 |
| RRIRLRPPRLPRPRPRPKAIPRP | 0.0195 |
| RRIRHRPPRLPRPRPRPCPQPRP | -0.195 |
| RRIRRRPPRLPRPRPRPLYPPRP | -0.0452 |
| RRIRVRPPRLPRPRPRPPKDPRP | 0.219 |
| RRIRPRPPRLPRPRPRPVHAPRP | 0.441 |
| RRIRWRPPRLPRPRPRPADCPRP | -0.00218 |
| RRIRVRPPRLPRPRPRPYDYPRP | -0.00141 |
| RRIRVRPPRLPRPRPRPRALPRP | 0.307 |
| RRIRVRPPRLPRPRPRPGNGPRP | 0.023 |
| RRIRQRPPRLPRPRPRPYTNPRP | -0.149 |
| RRIRRRPPRLPRPRPRPKRGPRP | 0.44 |
| RRIRPRPPRLPRPRPRPPKQPRP | 0.066 |
| RRIRMRPPRLPRPRPRPACCPRP | 0.646 |
| RRIRCRPPRLPRPRPRPSCIPRP | -0.253 |
| RRIRARPPRLPRPRPRPFVWPRP | 0.204 |
| RRIRCRPPRLPRPRPRPMSPPRP | -0.0415 |
| RRIRMRPPRLPRPRPRPERYPRP | 0.362 |
| RRIRQRPPRLPRPRPRPYVLPRP | -0.512 |
| RRIRKRPPRLPRPRPRPAMFPRP | 0.337 |
